Laboratory results taken from patent publication US20260242735A1 (UNIVERSIT T BASEL, published 2026).

Columns and labels:
[1] = target: human CD33 A108S (human, UniProt P20138 18-364); assay: flow cytometry on HEK293-T, alanine scan
Experimental: (§1) An alanine scan on human CD33 was performed to the determine the residues on CD33 that are involved in binding to the antibodies investigated. […] Briefly, a mutation library of CD33 was created by high-throughput, site-directed mutagenesis. Each residue was individually mutated to alanine, with alanine codons mutated to serine. The mutant library was arrayed in 384-well microplates and transiently transfected into HEK293-T. Following transfection, cells were incubated with the indicated antibodies (IgG or Fab) at concentrations pre-determined using an independent immunofluorescence titration curve on wild type CD33. […] Binding of each antibody to each mutant clone was determined in duplicates. For each point, background fluorescence was subtracted from the raw data, which were then normalized to antibody reactivity with wild type CD33.
(§2) Critical residues for antibody binding (outlined in dark grey) were residues whose mutations led to a binding of the test Abs of less than 20%. Additional secondary residues (outlined in light grey) were identified that led to a binding of the test Abs of between 20 and 40% as compared to the wild type CD33.

[2] = target: human CD33 V136A (human, UniProt P20138 18-364); assay: flow cytometry on HEK293-T, alanine scan
Experimental: as §1, §2

[3] = target: human CD33 E121A (human, UniProt P20138 18-364); assay: flow cytometry on HEK293-T, alanine scan
Experimental: as §1, §2

[4] = target: human CD33 T152A (human, UniProt P20138 18-364); assay: flow cytometry on HEK293-T, alanine scan
Experimental: as §1, §2

[5] = target: human CD33 H157A (human, UniProt P20138 18-364); assay: flow cytometry on HEK293-T, alanine scan
Experimental: as §1, §2

[6] = target: human CD33 G123A (human, UniProt P20138 18-364); assay: flow cytometry on HEK293-T, alanine scan
Experimental: as §1, §2

[7] = target: human CD33 D107A (human, UniProt P20138 18-364); assay: flow cytometry on HEK293-T, alanine scan
Experimental: as §1, §2

[8] = target: human CD33 S131A (human, UniProt P20138 18-364); assay: flow cytometry on HEK293-T, alanine scan
Experimental: as §1, §2

[9] = target: human CD33 C163A (human, UniProt P20138 18-364); assay: flow cytometry on HEK293-T, alanine scan
Experimental: as §1, §2

[10] = target: human CD33 K126A (human, UniProt P20138 18-364); assay: flow cytometry on HEK293-T, alanine scan
Experimental: as §1, §2

[11] = target: human CD33 P150A (human, UniProt P20138 18-364); assay: flow cytometry on HEK293-T, alanine scan
Experimental: as §1, §2

[12] = target: human CD33 H143A (human, UniProt P20138 18-364); assay: flow cytometry on HEK293-T, alanine scan
Experimental: as §1, §2

[13] = target: human CD33 T142A (human, UniProt P20138 18-364); assay: flow cytometry on HEK293-T, alanine scan
Experimental: as §1, §2

[14] = target: human CD33 H137A (human, UniProt P20138 18-364); assay: flow cytometry on HEK293-T, alanine scan
Experimental: as §1, §2

[15] = target: human CD33 S104A (human, UniProt P20138 18-364); assay: flow cytometry on HEK293-T, alanine scan
Experimental: as §1, §2

[16] = target: human CD33 Y116A (human, UniProt P20138 18-364); assay: flow cytometry on HEK293-T, alanine scan
Experimental: as §1, §2

[17] = target: human CD33 T162A (human, UniProt P20138 18-364); assay: flow cytometry on HEK293-T, alanine scan
Experimental: as §1, §2

[18] = target: human CD33 R111A (human, UniProt P20138 18-364); assay: flow cytometry on HEK293-T, alanine scan
Experimental: as §1, §2

[19] = target: human CD33 R110A (human, UniProt P20138 18-364); assay: flow cytometry on HEK293-T, alanine scan
Experimental: as §1, §2

[20] = target: human CD33 S135A (human, UniProt P20138 18-364); assay: flow cytometry on HEK293-T, alanine scan
Experimental: as §1, §2

[21] = target: human CD33 I147A (human, UniProt P20138 18-364); assay: flow cytometry on HEK293-T, alanine scan
Experimental: as §1, §2

[22] = target: human CD33 Q24V (human, UniProt P20138 18-364); assay: flow cytometry, mutant on cells, IgG
Experimental: as §1
(§3) Antibodies were screened for binding to the human CD33 variants in IgG format. […] For each mutation, background fluorescence was subtracted from the raw data, which were then normalized to antibody reactivity with wild-type CD33.

[23] = target: human CD33 Q24L (human, UniProt P20138 18-364); assay: flow cytometry, mutant on cells, IgG
Experimental: as §1, §3

[24] = target: human CD33 F44T (human, UniProt P20138 18-364); assay: flow cytometry, mutant on cells, IgG
Experimental: as §1, §3

[25] = target: human CD33 F21L (human, UniProt P20138 18-364); assay: flow cytometry, mutant on cells, IgG
Experimental: as §1, §3

[26] = target: human CD33 W22L (human, UniProt P20138 18-364); assay: flow cytometry, mutant on cells, IgG
Experimental: as §1, §3

[27] = target: human CD33 N20S (human, UniProt P20138 18-364); assay: flow cytometry, mutant on cells, IgG
Experimental: as §1, §3

[28] = target: human CD33 N20G (human, UniProt P20138 18-364); assay: flow cytometry, mutant on cells, IgG
Experimental: as §1, §3

[29] = target: human CD33 Q24H (human, UniProt P20138 18-364); assay: flow cytometry, mutant on cells, IgG
Experimental: as §1, §3

[30] = target: human CD33 N20Q (human, UniProt P20138 18-364); assay: flow cytometry, mutant on cells, IgG
Experimental: as §1, §3

[31] = target: human CD33 T42P (human, UniProt P20138 18-364); assay: flow cytometry, mutant on cells, IgG
Experimental: as §1, §3

[32] = target: human CD33 F43L (human, UniProt P20138 18-364); assay: flow cytometry, mutant on cells, IgG
Experimental: as §1, §3

[33] = target: human CD33 I47S (human, UniProt P20138 18-364); assay: flow cytometry, mutant on cells, IgG
Experimental: as §1, §3

[34] = target: human CD33 P19W (human, UniProt P20138 18-364); assay: flow cytometry, mutant on cells, IgG
Experimental: as §1, §3

[35] = target: human CD33 F44V (human, UniProt P20138 18-364); assay: flow cytometry, mutant on cells, IgG
Experimental: as §1, §3

[36] = target: human CD33 N20P (human, UniProt P20138 18-364); assay: flow cytometry, mutant on cells, IgG
Sequence of human CD33 N20P (P20138 18-364 N20P limits assumed): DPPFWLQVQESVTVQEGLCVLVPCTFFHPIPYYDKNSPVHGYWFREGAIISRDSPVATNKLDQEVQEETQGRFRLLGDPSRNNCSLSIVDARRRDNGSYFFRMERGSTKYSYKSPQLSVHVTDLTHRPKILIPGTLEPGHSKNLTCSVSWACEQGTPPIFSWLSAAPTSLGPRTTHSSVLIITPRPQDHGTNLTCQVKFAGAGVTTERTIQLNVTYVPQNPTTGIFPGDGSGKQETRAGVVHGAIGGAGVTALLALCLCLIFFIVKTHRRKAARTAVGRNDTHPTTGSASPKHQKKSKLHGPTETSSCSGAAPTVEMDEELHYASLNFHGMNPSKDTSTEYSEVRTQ
Experimental: as §1, §3

Sequence of human CD33 Q24L (P20138 18-364 Q24L limits assumed): as the sequence (P20138 18-364 N20P limits assumed) above, with P3N, Q7L counted along it
Sequence of human CD33 F43L (P20138 18-364 F43L limits assumed): as the sequence (P20138 18-364 N20P limits assumed) above, with P3N, F26L counted along it
Sequence of human CD33 F21L (P20138 18-364 F21L limits assumed): as the sequence (P20138 18-364 N20P limits assumed) above, with P3N, F4L counted along it
Sequence of human CD33 P19W (P20138 18-364 P19W limits assumed): as the sequence (P20138 18-364 N20P limits assumed) above, with P2W, P3N counted along it
Sequence of human CD33 N20Q (P20138 18-364 N20Q limits assumed): as the sequence (P20138 18-364 N20P limits assumed) above, with P3Q counted along it
Sequence of human CD33 Q24V (P20138 18-364 Q24V limits assumed): as the sequence (P20138 18-364 N20P limits assumed) above, with P3N, Q7V counted along it
Sequence of human CD33 N20S (P20138 18-364 N20S limits assumed): as the sequence (P20138 18-364 N20P limits assumed) above, with P3S counted along it
Sequence of human CD33 F44T (P20138 18-364 F44T limits assumed): as the sequence (P20138 18-364 N20P limits assumed) above, with P3N, F27T counted along it
Sequence of human CD33 Q24H (P20138 18-364 Q24H limits assumed): as the sequence (P20138 18-364 N20P limits assumed) above, with P3N, Q7H counted along it
Sequence of human CD33 F44V (P20138 18-364 F44V limits assumed): as the sequence (P20138 18-364 N20P limits assumed) above, with P3N, F27V counted along it
Sequence of human CD33 W22L (P20138 18-364 W22L limits assumed): as the sequence (P20138 18-364 N20P limits assumed) above, with P3N, W5L counted along it
Sequence of human CD33 T42P (P20138 18-364 T42P limits assumed): as the sequence (P20138 18-364 N20P limits assumed) above, with P3N, T25P counted along it
Sequence of human CD33 N20G (P20138 18-364 N20G limits assumed): as the sequence (P20138 18-364 N20P limits assumed) above, with P3G counted along it

B1: Refmab #3 (antibody, V domains shown)
VH: QVQLVQSGAEVKKPGSSVKVSCKASGYTFTDYNMHWVRQAPGQGLEWIGYIYPYNGGTGYNQKFKSKATITADESTNTAYMELSSLRSEDTAVYYCARGRPAMDYWGQGTLVTVSS
VL: DIQMTQSPSSLSASVGDRVTITCRASESVDNYGISFMNWFQQKPGKAPKLLIYAASNQGSGVPSRFSGSGSGTDFTLTISSLQPDDFATYYCQQSKEVPWTFGQGTKVEIK
notes: The alanine scan used IgG or Fab
Mean % WT Binding [1]: 98 % WT binding
Mean % WT Binding [2]: 106 % WT binding
Mean % WT Binding [3]: 132 % WT binding
Mean % WT Binding [4]: 155 % WT binding
Mean % WT Binding [5]: 138 % WT binding
Mean % WT Binding [6]: 292 % WT binding
Mean % WT Binding [7]: 92.5 % WT binding
Mean % WT Binding [8]: 117 % WT binding
Mean % WT Binding [9]: 65.7 % WT binding
Mean % WT Binding [10]: 566 % WT binding
Mean % WT Binding [11]: 102 % WT binding
Mean % WT Binding [12]: 97.9 % WT binding
Mean % WT Binding [13]: 133 % WT binding
Mean % WT Binding [14]: 100 % WT binding
Mean % WT Binding [15]: 102 % WT binding
Mean % WT Binding [16]: 5.3 % WT binding
Mean % WT Binding [17]: 109 % WT binding
Mean % WT Binding [18]: 93.4 % WT binding
Mean % WT Binding [19]: 99.1 % WT binding
Mean % WT Binding [20]: 107 % WT binding
Mean % WT Binding [21]: 67.1 % WT binding

B2: Refmab #3 (antibody, human IgG1, V domains shown)
VH: B1 VH
VL: B1 VL
notes: Tested in IgG format; human IgG1 Fc silent (PG-LALA)
Mean % WT Binding [22]: 24.5 % WT binding
Mean % WT Binding [23]: 11.8 % WT binding
Mean % WT Binding [24]: 83.3 % WT binding
Mean % WT Binding [25]: 1 % WT binding
Mean % WT Binding [26]: 1.5 % WT binding
Mean % WT Binding [27]: 4.6 % WT binding
Mean % WT Binding [28]: 3.6 % WT binding
Mean % WT Binding [29]: 7.1 % WT binding
Mean % WT Binding [30]: 3.4 % WT binding
Mean % WT Binding [31]: 18.6 % WT binding
Mean % WT Binding [32]: 111 % WT binding
Mean % WT Binding [33]: 94.9 % WT binding
Mean % WT Binding [34]: 71.2 % WT binding
Mean % WT Binding [35]: 101 % WT binding
Mean % WT Binding [36]: 1.7 % WT binding

B3: Refmab #4 (antibody, human IgG1, V domains shown)
VH: QVQLVQSGAEVKKPGESVKVSCKASGYTFTNYGMNWVKQAPGQGLEWMGWINTYTGEPTYADKFQGRVTMTTDTSTSTAYMEIRNLGGDDTAVYYCARWSWSDGYYVYFDYWGQGTSVTVSS
VL: DIVMTQSPDSLTVSLGERTTINCKSSQSVLDSSTNKNSLAWYQQKPGQPPKLLLSWASTRESGIPDRFSGSGSGTDFTLTIDSPQPEDSATYYCQQSAHFPITFGQGTRLEIK
notes: as for B2
Mean % WT Binding [22]: 81.5 % WT binding
Mean % WT Binding [23]: 97 % WT binding
Mean % WT Binding [24]: 97.1 % WT binding
Mean % WT Binding [25]: 114 % WT binding
Mean % WT Binding [26]: 108 % WT binding
Mean % WT Binding [27]: 91.7 % WT binding
Mean % WT Binding [28]: 103 % WT binding
Mean % WT Binding [29]: 93.2 % WT binding
Mean % WT Binding [30]: 99.4 % WT binding
Mean % WT Binding [31]: 21.6 % WT binding
Mean % WT Binding [32]: 100 % WT binding
Mean % WT Binding [33]: 90.1 % WT binding
Mean % WT Binding [34]: 82.8 % WT binding
Mean % WT Binding [35]: 96.6 % WT binding
Mean % WT Binding [36]: 98.5 % WT binding

B4: Refmab #1 (antibody, human IgG1, V domains shown)
VH: EVQLVQSGAEVKKPGSSVKVSCKASGYTITDSNIHWVRQAPGQSLEWIGYIYPYNGGTDYNQKFKNRATLTVDNPTNTAYMELSSLRSEDTAFYYCVNGNPWLAYWGQGTLVTVSS
VL: DIQLTQSPSTLSASVGDRVTITCRASESLDNYGIRFLTWFQQKPGKAPKLLMYAASNQGSGVPSRFSGSGSGTEFTLTISSLQPDDFATYYCQQTKEVPWSFGQGTKVEVK
notes: Tested in IgG format; human IgG1 (Absolute Antibody hP67.6, Cat. No. Ab00283-10.0); also called hP67.6
Mean % WT Binding [22]: 92.6 % WT binding
Mean % WT Binding [23]: 80.9 % WT binding
Mean % WT Binding [24]: 107 % WT binding
Mean % WT Binding [25]: 4.7 % WT binding
Mean % WT Binding [26]: 45.8 % WT binding
Mean % WT Binding [27]: 45.5 % WT binding
Mean % WT Binding [28]: 5.1 % WT binding
Mean % WT Binding [29]: 95.3 % WT binding
Mean % WT Binding [30]: 2.8 % WT binding
Mean % WT Binding [31]: 14.6 % WT binding
Mean % WT Binding [32]: 111 % WT binding
Mean % WT Binding [33]: 105 % WT binding
Mean % WT Binding [34]: 73.8 % WT binding
Mean % WT Binding [35]: 99.5 % WT binding
Mean % WT Binding [36]: 2.9 % WT binding

B5: Refmab #2 (antibody, human IgG1, V domains shown)
VH: QVQLVQSGAEVKKPGSSVKVSCKASGGTFSDYAISWVRQAPGQGLEWMGRIIPILGVADYAQKFQGRVTITADKSTRTAYMELSSLRSEDTAVYYCARNWADAFDIWGQGTMVTVSS
VL: DIQLTQSPSSLSASVGDRVTITCRASQGISSVLAWYQQKPGKAPKLLIYDASSLESGVPSRFSGSGSGTDFTLTISSLQPEDFATYYCQQFDSSITFGQGTKLEIK
notes: as for B2
Mean % WT Binding [22]: 99.3 % WT binding
Mean % WT Binding [23]: 102 % WT binding
Mean % WT Binding [24]: 0.8 % WT binding
Mean % WT Binding [25]: 120 % WT binding
Mean % WT Binding [26]: 110 % WT binding
Mean % WT Binding [27]: 124 % WT binding
Mean % WT Binding [28]: 105 % WT binding
Mean % WT Binding [29]: 101 % WT binding
Mean % WT Binding [30]: 125 % WT binding
Mean % WT Binding [31]: 12.7 % WT binding
Mean % WT Binding [32]: 45.8 % WT binding
Mean % WT Binding [33]: 3.4 % WT binding
Mean % WT Binding [34]: 88.3 % WT binding
Mean % WT Binding [35]: 2.3 % WT binding
Mean % WT Binding [36]: 98.5 % WT binding
